Measured values published in PMC9638944, “ATM-mediated ELL phosphorylation enhances its self-association through increased EAF1 interaction and inhibits global transcription during genotoxic stress” (Nucleic Acids Research, 2022).

B1: His-GFP-ELL (natural protein, human, UniProt P55199 1-621, looked up)
chain: MAALKEDRSYGLSCGRVSDGSKVSVFHVKLTDSALRAFESYRARQDSVSLRPSIRFQGSQGHISIPQPDCPAEARTFSFYLSNIGRDNPQGSFDCIQQYVSSHGEVHLDCLGSIQDKITVCATDDSYQKARQSMAQAEEETRSRSAIVIKAGGRYLGKKVQFRKPAPGATDAVPSRKRATPINLASAIRKSGASAVSGGSGVSQRPFRDRVLHLLALRPYRKAELLLRLQKDGLTQADKDALDGLLQQVANMSAKDGTCTLQDCMYKDVQKDWPGYSEGDQQLLKRVLVRKLCQPQSTGSLLGDPAASSPPGERGRSASPPQKRLQPPDFIDPLANKKPRISHFTQRAQPAVNGKLGVPNGREALLPTPGPPASTDTLSSSTHLPPRLEPPRAHDPLADVSNDLGHSGRDCEHGEAAAPAPTVRLGLPLLTDCAQPSRPHGSPSRSKPKKKSKKHKDKERAAEDKPRAQLPDCAPATHATPGAPADTPGLNGTCSVSSVPTSTSETPDYLLKYAAISSSEQRQSYKNDFNAEYSEYRDLHARIERITRRFTQLDAQLRQLSQGSEEYETTRGQILQEYRKIKKTNTNYSQEKHRCEYLHSKLAHIKRLIAEYDQRQLQAWP
notes: ELL (aka ELL1), human; Cloned in pET-11d; also called GFP-ELL (in vitro); purified recombinant ELL protein; source: E. coli BL21(DE3), purified (Ni-NTA)

What was measured:
[1] = target: EAF1 (UniProt Q96JC9); assay: IP of tagged ELL, EAF1 blot; settings: reference: wild type ELL; sites T551,S561,S589
[2] = target: T1, GST-ELL (human, UniProt P55199 1-621); assay: pull-down; GST or GST-ELL bound to glutathione beads incubated with purified prey in 20 mM Tris-Cl pH 8, 20% glycerol, 2 mM EDTA, 150 mM KCl, BSA 20 ng/μl, 0.1% NP-40, 10–12 h, 4°C; immunoblot; some panels with purified EAF1 added; settings: both partners purified
T1 construct: ELL (aka ELL1), human; Cloned in pET-GST
T1 sequence (looked up): B1 chain

[3] = target: the molecule itself; assay: co-sedimentation; glycerol gradient of purified recombinant His-GFP-ELL

| Molecule | binding against the reference [1] | binding result [2] | binding result [3] |
| --- | --- | --- | --- |
| ELL (aka ELL1) (from UniProt P55199) ELL TM (T551A, S561A, S589A) | weaker |  |  |
| B1 |  | binds | binds |
